The values that follow come from patent US10463750.

The target in experiment [1] is 2C TCR (transgenic T cell receptor of CD8+ 2C T cells) (mouse). The experiment in a line: cell-based or functional assay.
For experiment [2], the target named is Pmel TCR (tumor-antigen gp-100 specific transgenic TCR of CD8+ Pmel T cells) (mouse). Nature of the experiment: cell-based or functional assay.

As to “1B2 (an anti-clonotypic 2C TCR-specific mAb; mouse IgG1 isotype) (antibody)”, in experiment [1], the 1B2/CD19 specific re-direction lysis of T2 cells, pre-targeted protocol, 51Cr release lay within 20 to 25%; the PKH26/67 double positive cell conjugates (2C/T2 conjugate formation) stood at 19.5%; the re-directional specific lysis window of T2 cells (1B2/CD19 minus 1B2 beads), co-culture, E:T 1:1, 51Cr release amounted to 30%; the re-directional specific lysis window of T2 cells (1B2/CD19 minus 1B2 beads), co-culture, E:T 2:1, 51Cr release was 20%. Besides, in experiment [1], the re-directional specific lysis window of T2 cells (1B2/CD19 minus 1B2 beads), co-culture, E:T 5:1, 51Cr release was determined as 10% and the specific lysis of T2 cells, pre-targeted protocol (FIG. 4B), 51Cr release was determined as 20%.
Take “GP 100 peptide loaded D^b-Ig dimer (from UniProt P61769 21-119) (peptide-MHC)”: in experiment [2], the lysis of T2 cells, pre-targeted assay, E:T 10:1, 51Cr release was below 40% and the re-directional specific lysis window (Db-gp100-Ig/CD19 against Db-gp100-Ig beads) came to 5%.
As to “QL9 peptide loaded L^d-Ig dimer (from UniProt P61769 21-119) (peptide-MHC)”, in experiment [1], the lysis of T2 cells, pre-targeted assay, E:T 10:1, 51Cr release is below 20% and the re-directional lysis specific window (Ld-QL9-Ig/CD19 against Ld-QL9-Ig beads) is below 15%.
